Laboratory results published in article PMC5233613.
“Also recorded” adds a separate entry of the source.

How the values were obtained:
LC3B 1-125 [1] = biological target: LC3B 1-125 (UniProt Q9GZQ8); assay: ITC
LC3B 1-125 [2] = biological target: LC3B 1-125 (UniProt Q9GZQ8); assay: ITC; conditions: reference: unphosphorylated peptide; sites S13
[3] = reference: wild-type LC3B, sites S17

Substance: FUNDC1 10-25 (from UniProt Q8IVP5) LC3B K49E
- KD (LC3B 1-125 [1]; [3]): weaker; reference 0.59 ± 0.06

Substance: FUNDC1 10-25 (from UniProt Q8IVP5) pS13 peptide
- KD (LC3B 1-125 [1]; reference: unphosphorylated peptide, sites S13): weaker; reference 1.78 ± 0.16
- KD (LC3B 1-125 [2]): weaker; reference 11.44 ± 1.14; also recorded: weaker; reference 5.62 ± 0.25

Substance: FUNDC1 10-25 (from UniProt Q8IVP5) LC3B K49R
- KD (LC3B 1-125 [1]; [3]): stronger; reference 0.59 ± 0.06

Substance: FUNDC1 10-25 (from UniProt Q8IVP5) pY18 peptide
- KD (LC3B 1-125 [1]; reference: unphosphorylated peptide, sites Y18): weaker; reference 1.78 ± 0.16

Substance: FUNDC1 10-25 (from UniProt Q8IVP5) pS17 peptide
- KD (LC3B 1-125 [1]; reference: unphosphorylated peptide, sites S17): stronger; reference 1.78 ± 0.16

Substance: FUNDC1 10-25 (from UniProt Q8IVP5) LC3B K49A
- KD (LC3B 1-125 [1]; [3]): weaker; reference 0.59 ± 0.06
